Values quoted from earlier work as cited in PMC3929396.

Molecular target: CCR5 (Homo sapiens) (UniProt P51681)
Assay: SPR

Chain of UniProt P51681 (P51681 whole entry): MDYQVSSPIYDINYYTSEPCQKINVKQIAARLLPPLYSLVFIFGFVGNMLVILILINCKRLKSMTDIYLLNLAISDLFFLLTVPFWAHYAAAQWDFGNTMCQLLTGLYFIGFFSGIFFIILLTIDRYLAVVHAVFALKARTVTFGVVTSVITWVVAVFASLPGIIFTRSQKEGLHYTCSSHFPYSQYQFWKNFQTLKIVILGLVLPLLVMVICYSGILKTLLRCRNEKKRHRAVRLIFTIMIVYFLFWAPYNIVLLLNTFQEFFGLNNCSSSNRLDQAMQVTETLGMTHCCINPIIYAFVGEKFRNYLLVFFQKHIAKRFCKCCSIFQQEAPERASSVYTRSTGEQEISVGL

LukE (from UniProt O54081)
Kd: 39.6 nM
